Assay results: patent publication US20210371537A1 (MERRIMACK PHARMACEUTICALS, published 2021)
Residue numbers refer to the chain shown, from its start.

B1: ABV2 chimera (ABV2c) (antibody, human IgG1, kappa, V domains shown)
VH: QIQLVQSGPELKKPGETVKISCKASGYTFTTFGMSWVKQAPGKGLKWMGWINTYSGVPTYADDFKGRFAFSLETSASTAYLQINNLKNEDTATYFCARRSNFAYWGQGTLVTVSA
VL: DIVLTQSPASLAVSLGQRATISCRASESVDSSGNSFMHWYQQKAGQSFKLLIYRASNLESGIPARFSGSGSRTDFTLTINPVEADDVATYYCQQSNEDPWTFGGGTKLEIKR
notes: VH and VL of mouse ABV2 fused with human IgG1 and human kappa constant regions; also called ABVc; chimeric anti-human TNFR2 antibody
B2: ABV2.7 (antibody, human IgG1, kappa, V domains shown)
VH: QVQLVQSGSELKKPGASVKVSCKASGYTFTTFGMSWVRQAPGQGLEWMGWINTYSGVPTYAQGFTGRFVFSLDTSVSTAYLQISSLKAEDTAVYFCARRSNFAYWGQGTLVTVSS
VL: DIVLTQSPDSLAVSLGERATINCRASESLTASGNSFMHWYQQKPGQPPKLLIYRASNLESGVPDRFSGSGSRTDFTLTISSLQAEDVAVYYCQQSRHVNWTFGGGTKVEIKR
B3: ABV2.1 (ABV2 hum #2 HD3) (antibody, V domains shown)
VH: B2 VH
VL: DIVLTQSPDSLAVSLGERATINCRASESVDSSGNSFMHWYQQKPGQPPKLLIYRASNLESGVPDRFSGSGSRTDFTLTISSLQAEDVAVYYCQQSNEDPWTFGGGTKVEIK
notes: humanized ABV2; also called parental antibody
B4: ABV2.13 (antibody, human IgG1, kappa, V domains shown)
VH: B2 VH with T59H
VL: DIVLTQSPDSLAVSLGERATINCRASQTVDSSGNSFMHWYQQKPGQPPKLLIYLGNRLESGVPDRFSGSGSRTDFTLTISSLQAEDVAVYYCQQSNEDPWTFGGGTKVEIKR
B5: ABV2.15 (antibody, human IgG1, kappa, V domains shown)
VH: B2 VH with T59H
VL: B2 VL

Experiments:
[1] = target: his-tagged mouse TNFR2 (mouse) (UniProt P25119); assay: blocking ELISA: His-tagged mouse TNFR2 coated, antibody titrated, then recombinant mouse TNF-alpha added and detected; OD450 normalized
Sequence of his-tagged mouse TNFR2 (mouse) (P25119 23-258 limits assumed): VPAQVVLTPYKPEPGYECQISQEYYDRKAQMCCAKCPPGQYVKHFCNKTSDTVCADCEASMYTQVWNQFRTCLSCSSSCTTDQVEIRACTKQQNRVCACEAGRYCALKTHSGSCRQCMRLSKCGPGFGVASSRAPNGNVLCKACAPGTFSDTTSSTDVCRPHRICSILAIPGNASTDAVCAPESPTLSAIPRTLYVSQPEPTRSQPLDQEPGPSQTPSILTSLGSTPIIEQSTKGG

[2] = target: T1, human TNFR2 on GloResponse NF-kB-RE-luc2p HEK293 reporter cells (human, UniProt P20333 23-461); assay: cell-based or functional assay
T1 sequence: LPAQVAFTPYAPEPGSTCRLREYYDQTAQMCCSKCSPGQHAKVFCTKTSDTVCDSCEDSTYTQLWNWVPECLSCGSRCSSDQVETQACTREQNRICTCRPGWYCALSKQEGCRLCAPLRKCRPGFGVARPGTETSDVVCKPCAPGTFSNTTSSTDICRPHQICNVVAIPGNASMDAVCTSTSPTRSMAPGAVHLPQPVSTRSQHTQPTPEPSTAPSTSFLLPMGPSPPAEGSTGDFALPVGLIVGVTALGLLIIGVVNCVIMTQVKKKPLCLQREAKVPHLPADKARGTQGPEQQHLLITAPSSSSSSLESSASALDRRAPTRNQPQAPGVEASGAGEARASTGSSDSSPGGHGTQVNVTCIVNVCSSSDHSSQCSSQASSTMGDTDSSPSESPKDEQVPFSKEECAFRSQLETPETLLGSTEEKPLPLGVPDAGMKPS

human TNFR2-His = target: T2, human TNFR2-His (human, UniProt P20333 23-257); assay: BLI, antibody on anti-Human Fc Capture (AHC) biosensors, human TNFR2-His in solution
T2 construct: not shown: His tag
T2 sequence: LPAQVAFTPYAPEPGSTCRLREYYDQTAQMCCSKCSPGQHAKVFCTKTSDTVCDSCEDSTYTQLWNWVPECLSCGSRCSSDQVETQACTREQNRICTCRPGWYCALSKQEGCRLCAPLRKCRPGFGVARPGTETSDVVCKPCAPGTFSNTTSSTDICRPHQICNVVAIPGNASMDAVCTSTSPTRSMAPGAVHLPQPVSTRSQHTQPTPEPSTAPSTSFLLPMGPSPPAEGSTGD
Experimental: Binding affinities for human TNFR2 of the affinity-matured anti-human TNFR2 antibodies generated in Example 30 were measured by bio-layer interferometry (BLI). Briefly, a BLI kinetic assay was performed using anti-Human Fc Capture (AHC) biosensors (ForteBio) under the following conditions: (a) loading of antibody (4 μg/mL) for 60 sec, (b) baseline for 60 sec, (d) association with human TNFR2-His ([…]) for 300 sec, and (e) dissociation for 300 sec.

Molecule | IC50 (read off the curve) [1] | EC50 in stimulating NF-kB activity [2] | Kd (human TNFR2-His) | EC50 of induced NF-kB activity [2]
54.7 (Bioxcell) (antibody) | 2 nM | – | – | –
B1 | – | 8.6 µg/mL | 0.689 nM | –
B2 | – | 10.8 µg/mL | 0.3 nM | –
B3 | – | – | 4.42 nM | 1.6 µg/mL
B4 | – | 4.1 µg/mL | 1.59 nM | –
B5 | – | 9.3 µg/mL | 0.158 nM | 5.3 µg/mL
